Measurements taken from PMC5233613, “Structural insights into the recognition of phosphorylated FUNDC1 by LC3B in mitophagy” (Protein & Cell, 2016).
Non-standard residues stand in square brackets, D forms with d. No end group written: not given here. pY = N[C@@H](Cc1ccc(OP(=O)(O)O)cc1)C(=O)O; pS = N[C@@H](COP(=O)(O)O)C(=O)O

Experiments:
Assay in all cases: ITC; MicroCal iTC200, 25 °C; proteins 0.25 mmol/L and peptides 3 mmol/L, dialyzed against buffer B (20 mmol/L Tris-HCl, 200 mmol/L NaCl, 1 mmol/L EDTA, pH 8.0); single binding site model
Details in all cases: both partners purified
[1] = target: microtubule-associated protein light chain 3 beta (LC3B), wild type, full-length 1-125 (human, UniProt Q9GZQ8 1-120)
[2] = target: LC3B R11A (human, UniProt Q9GZQ8 1-120, R11A)
[3] = target: LC3B R11E (human, UniProt Q9GZQ8 1-120, R11E)
[4] = target: LC3B R10E (human, UniProt Q9GZQ8 1-120, R10E)
[5] = target: LC3B R10A (human, UniProt Q9GZQ8 1-120, R10A)
[6] = target: LC3B K49A (human, UniProt Q9GZQ8 1-120, K49A)
[7] = target: LC3B L53A (human, UniProt Q9GZQ8 1-120, L53A)
[8] = target: LC3B K51A (human, UniProt Q9GZQ8 1-120, K51A)
[9] = target: LC3B K49R (human, UniProt Q9GZQ8 1-120, K49R)
[10] = target: LC3B D19A (human, UniProt Q9GZQ8 1-120, D19A)
[11] = target: LC3B R70E (human, UniProt Q9GZQ8 1-120, R70E)
[12] = target: LC3B I23A (human, UniProt Q9GZQ8 1-120, I23A)
[13] = target: LC3B K49E (human, UniProt Q9GZQ8 1-120, K49E)
[14] = target: LC3B R70A (human, UniProt Q9GZQ8 1-120, R70A)
[15] = target: LC3B T50A (human, UniProt Q9GZQ8 1-120, T50A)
[16] = target: LC3B L47A (human, UniProt Q9GZQ8 1-120, L47A)
[17] = target: LC3B V46A (human, UniProt Q9GZQ8 1-120, V46A)
[18] = target: LC3B F7A (human, UniProt Q9GZQ8 1-120, F7A)
[19] = target: LC3B D48A (human, UniProt Q9GZQ8 1-120, D48A)

B1: FUNDC1 LIR peptide 10-25 phosphorylated at Tyr18 (peptide)
peptide: DYESDDDS[pY]EVLDLTE
notes: also called FUNDC1 pY18; pY18 peptide; source: synthetic peptide (GL Biochem, Shanghai)
[1]
  Kd: 16.8 ± 2.1 µM
  dH: -0.93 kcal/mol
  stoichiometry N: 1.16

B2: FUNDC1 LIR peptide 10-25 phosphorylated at Ser13 (peptide)
peptide: DYE[pS]DDDSYEVLDLTE
notes: also called FUNDC1 pS13; pS13 peptide; source: synthetic peptide (GL Biochem, Shanghai)
[2]
  Kd: 11.2 ± 0.73 µM
  dH: -4.1 kcal/mol
  stoichiometry N: 1.11
[3]
  Kd: 17.1 ± 1.05 µM
  dH: -2.39 kcal/mol
  stoichiometry N: 1.04
[1]
  Kd: 4.63 ± 0.13 µM
  dH: -3.81 kcal/mol
  stoichiometry N: 1.13
[4]
  Kd: 34 ± 3.46 µM
  dH: -2.83 kcal/mol
  stoichiometry N: 1.03
[5]
  Kd: 28.5 ± 2.97 µM
  dH: -3.67 kcal/mol
  stoichiometry N: 1.02

B3: FUNDC1 LIR peptide 10-25 phosphorylated at Ser17 (peptide)
peptide: DYESDDD[pS]YEVLDLTE
notes: also called FUNDC1 pS17; FUNDC1 pS17 peptide; source: synthetic peptide (GL Biochem, Shanghai)
[6]
  Kd: 3.56 ± 0.21 µM
  dH: -4.9 kcal/mol
  stoichiometry N: 1.08
[7]
  Kd: 0.97 ± 0.14 µM
  dH: -2.61 kcal/mol
  stoichiometry N: 1.03
[8]
  Kd: 5.92 ± 0.75 µM
  dH: -2.66 kcal/mol
  stoichiometry N: 1.03
[9]
  Kd: 0.33 ± 0.07 µM
  dH: -5.78 kcal/mol
  stoichiometry N: 1.17
[10]
  Kd: 2.39 ± 0.3 µM
  dH: -2.78 kcal/mol
  stoichiometry N: 1.16
[11]
  Kd: 61 ± 3.44 µM
  dH: -2.54 kcal/mol
  stoichiometry N: 1.03
[12]
  Kd: 4.85 ± 0.25 µM
  dH: -1.53 kcal/mol
  stoichiometry N: 1.04
[13]
  Kd: 120 ± 5.72 µM
  dH: -4.49 kcal/mol
  stoichiometry N: 0.93
[14]
  Kd: 15.8 ± 1.5 µM
  dH: -1.8 kcal/mol
  stoichiometry N: 1.04
[1]
  Kd: 0.59 ± 0.06 µM
  dH: -3.51 kcal/mol
  stoichiometry N: 1

B4: FUNDC1 LIR peptide 10-25, unphosphorylated (peptide)
peptide: DYESDDDSYEVLDLTE
notes: FUNDC1 (Fun14 domain-containing protein 1), LIR and flanking residues 10-25; also called unphosphorylated FUNDC1 peptide; FUNDC1 peptide; source: synthetic peptide (GL Biochem, Shanghai)
[15]
  Kd: 2.81 ± 0.31 µM
  dH: -2.65 kcal/mol
  stoichiometry N: 1.02
[2]
  Kd: 5.62 ± 0.25 µM
  dH: -4.51 kcal/mol
  stoichiometry N: 1.12
[16]
  Kd: 3.07 ± 0.64 µM
  dH: -2.06 kcal/mol
  stoichiometry N: 1.19
[17]
  Kd: 1.59 ± 0.19 µM
  dH: -4.86 kcal/mol
  stoichiometry N: 1.02
[1]
  Kd: 1.78 ± 0.16 µM
  dH: -3.15 kcal/mol
  stoichiometry N: 1.02
[18]
  Kd: 3.52 ± 0.23 µM
  dH: -3.08 kcal/mol
  stoichiometry N: 1.17
[5]
  Kd: 11.4 ± 1.14 µM
  dH: -3.56 kcal/mol
  stoichiometry N: 1.01
[19]
  Kd: 1.17 ± 0.15 µM
  dH: -3.03 kcal/mol
  stoichiometry N: 0.98
